Here are results for 2 molecules from patent US20260234255A1 (Genmab, published 2026).

Assay [1] has as its target T1, human CD30 (human, UniProt P28908 19-595).
T1 construct: The same molecule is used for CD30 on HL/ALCL/NHL cell lines; also called huCD30; TNFRSF8
T1 sequence: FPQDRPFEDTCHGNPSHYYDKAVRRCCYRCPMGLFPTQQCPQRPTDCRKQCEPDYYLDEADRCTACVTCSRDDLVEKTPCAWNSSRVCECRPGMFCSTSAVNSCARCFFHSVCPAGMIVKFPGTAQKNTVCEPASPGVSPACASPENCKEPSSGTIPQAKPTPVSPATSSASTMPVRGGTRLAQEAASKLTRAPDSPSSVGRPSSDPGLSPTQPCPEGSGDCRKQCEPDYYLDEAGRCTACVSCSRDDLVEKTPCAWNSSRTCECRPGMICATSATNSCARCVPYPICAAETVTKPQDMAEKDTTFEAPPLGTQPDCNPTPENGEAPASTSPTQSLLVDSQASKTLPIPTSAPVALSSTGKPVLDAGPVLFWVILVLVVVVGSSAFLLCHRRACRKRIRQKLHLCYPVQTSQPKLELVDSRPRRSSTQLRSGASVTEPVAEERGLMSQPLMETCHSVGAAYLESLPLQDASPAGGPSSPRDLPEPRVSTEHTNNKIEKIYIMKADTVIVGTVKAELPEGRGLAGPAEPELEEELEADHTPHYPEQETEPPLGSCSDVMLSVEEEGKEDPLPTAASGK
The assay can be described thus: flow cytometry, KI-JK cells. For orientation: Flow cytometry measures light scatter and fluorescence of single cells or particles in a stream.

The target in assay [2] is T1, human CD30. Description: flow cytometry, HDLM-2 cells.
The target of assay [3] is T2, cynomolgus monkey (Macaca fascicularis) CD30 (cynomolgus monkey, UniProt P28908 19-595 (human entry)).
T2 construct: also called mfCD30
T2 chain: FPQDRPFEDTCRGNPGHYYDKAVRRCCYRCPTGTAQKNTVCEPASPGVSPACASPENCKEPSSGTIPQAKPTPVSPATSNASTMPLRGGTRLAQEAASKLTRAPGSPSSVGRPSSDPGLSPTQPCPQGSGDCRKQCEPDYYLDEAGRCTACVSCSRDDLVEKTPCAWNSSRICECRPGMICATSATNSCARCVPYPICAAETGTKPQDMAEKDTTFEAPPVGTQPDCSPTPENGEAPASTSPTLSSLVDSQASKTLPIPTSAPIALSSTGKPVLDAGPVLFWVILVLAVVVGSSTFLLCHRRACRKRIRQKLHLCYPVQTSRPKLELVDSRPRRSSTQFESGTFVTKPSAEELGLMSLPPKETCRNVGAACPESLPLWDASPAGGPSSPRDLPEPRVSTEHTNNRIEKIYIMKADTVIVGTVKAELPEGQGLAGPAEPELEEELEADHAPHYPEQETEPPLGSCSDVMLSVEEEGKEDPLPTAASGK
Description: flow cytometry, Expi293F cells transfected with cynomolgus monkey CD30 (mfCD30). Here is the method:
Cells (3×10⁴ cells/well) were incubated in polystyrene 96-well round-bottom plates (Greiner bio-one, cat. no. 650180) with serial dilutions of antibodies (ranging from 0.005 to 10 μg/mL in 3-fold dilution steps) in 100 μL staining buffer at 4° C. for 30 min. Experiments were performed in technical duplicate. After washing twice in staining buffer, cells were incubated in 50 μL secondary antibody at 4° C. for 30 min. As a secondary antibody, R-PE-conjugated goat-anti-human IgG (Jackson ImmunoResearch, UK; cat. no. 109⁻¹¹⁶-098) diluted 1:400 in staining buffer was used. Cells were washed twice in staining buffer, resuspended in 30 μL staining buffer containing 0.4% EDTA and analyzed on an iQue Screener (Intellicyt Corporation, USA). Binding curves were analyzed using non-linear regression (sigmoidal dose-response with variable slope) using GraphPad Prism V9.0.0 software (GraphPad Software, San Diego, CA, USA).

For assay [4], the target named is T1, human CD30. The assay can be described thus: flow cytometry, SU-DHL-1 cells. As to the method:
(§1) Binding of CD3×CD30 bispecific antibodies to two CD30-expressing human tumor cell lines SU-DHL-1 (ALCL; ATCC, cat. no. ACC 356) and HDLM-2 (HL; ATCC, cat. no. CRL-2965) was analyzed […] by flow cytometry.
(§2) Cells (3×10⁴ cells/well) were incubated in polystyrene 96-well round-bottom plates (Greiner bio-one, cat. no. 650180) with serial dilutions of antibodies (range 0.0046 to 10 μg/mL in 3-fold dilution steps) in 50 μL staining buffer at 4° C. for 30 min. After washing twice in staining buffer, cells were incubated with 50 μL secondary antibody at 4° C. for 30 min. […] Next, cells were washed twice in staining buffer, resuspended in 100 μL staining buffer supplemented with TO-PRO-3 iodide (Thermo Fisher Scientific; cat. no. T3605; 1:8000 dilution) and analyzed on a FACSCelesta flow cytometer (BD Biosciences, USA). Live cells were gated based on FSC/SSC and absence of TOPRO-3 staining. Binding curves were analyzed by non-linear regression of log-transformed data (sigmoidal dose-response with variable slope, four parameters) using GraphPad Prism V7.02 software (GraphPad Software, San Diego, CA, USA).

The target of assay [5] is T1, human CD30. Description: flow cytometry, HDLM-2 cells. As to the method: as §1, §2
Assay [6] deals with T1, human CD30. Description: flow cytometry, DEL cells.
Assay [7] addresses T1, human CD30. Description: flow cytometry, NCEB-1 cells.
In assay [8] the target is T1, human CD30. Description: flow cytometry, L-1236 cells.
Assay [9] concerns the target T1, human CD30. The assay can be described thus: flow cytometry, DL-40 cells.
The target of assay [10] is T1, human CD30. Description: flow cytometry, HH cells. As to the method: as §2
Assay [11] addresses T1, human CD30. The assay can be described thus: flow cytometry, L-82 cells.
Assay [12] deals with T1, human CD30. Description: flow cytometry, SR-786 cells.
In assay [13] the target is T1, human CD30. Description: flow cytometry, SUP-M2 cells.
For assay [14], the target named is T1, human CD30. The assay can be described thus: flow cytometry, L-540 cells.
The target in assay [15] is T1, human CD30. Description: flow cytometry, KM-H2 cells.

B1: bsG1-b12-FEALxCD30-MDX060-FEAR (bispecific antibody, human IgG1, kappa)
heavy 1: QVQLVQSGAEVKKPGASVKVSCQASGYRFSNFVIHWVRQAPGQRFEWMGWINPYNGNKEFSAKFQDRVTFTADTSANTAYMELRSLRSADTAVYYCARVGPYSWDDSPQDNYYMDVWGKGTTVIVSSASTKGPSVFPLAPSSKSTSGGTAALGCLVKDYFPEPVTVSWNSGALTSGVHTFPAVLQSSGLYSLSSVVTVPSSSLGTQTYICNVNHKPSNTKVDKRVEPKSCDKTHTCPPCPAPEFEGGPSVFLFPPKPKDTLMISRTPEVTCVVVAVSHEDPEVKFNWYVDGVEVHNAKTKPREEQYNSTYRVVSVLTVLHQDWLNGKEYKCKVSNKALPAPIEKTISKAKGQPREPQVYTLPPSREEMTKNQVSLTCLVKGFYPSDIAVEWESNGQPENNYKTTPPVLDSDGSFLLYSKLTVDKSRWQQGNVFSCSVMHEALHNHYTQKSLSLSPG
light 1: EIVLTQSPGTLSLSPGERATFSCRSSHSIRSRRVAWYQHKPGQAPRLVIHGVSNRASGISDRFSGSGSGTDFTLTITRVEPEDFALYYCQVYGASSYTFGQGTKLERKRTVAAPSVFIFPPSDEQLKSGTASVVCLLNNFYPREAKVQWKVDNALQSGNSQESVTEQDSKDSTYSLSSTLTLSKADYEKHKVYACEVTHQGLSSPVTKSFNRGEC
heavy 2: QVQLQQWGAGLLKPSETLSLTCAVYGGSFSAYYWSWIRQPPGKGLEWIGDINHGGGTNYNPSLKSRVTISVDTSKNQFSLKLNSVTAADTAVYYCASLTAYWGQGSLVTVSSASTKGPSVFPLAPSSKSTSGGTAALGCLVKDYFPEPVTVSWNSGALTSGVHTFPAVLQSSGLYSLSSVVTVPSSSLGTQTYICNVNHKPSNTKVDKRVEPKSCDKTHTCPPCPAPEFEGGPSVFLFPPKPKDTLMISRTPEVTCVVVAVSHEDPEVKFNWYVDGVEVHNAKTKPREEQYNSTYRVVSVLTVLHQDWLNGKEYKCKVSNKALPAPIEKTISKAKGQPREPQVYTLPPSREEMTKNQVSLTCLVKGFYPSDIAVEWESNGQPENNYKTTPPVLDSDGSFFLYSRLTVDKSRWQQGNVFSCSVMHEALHNHYTQKSLSLSPG
light 2: DIQMTQSPTSLSASVGDRVTITCRASQGISSWLTWYQQKPEKAPKSLIYAASSLQSGVPSRFSGSGSGTDFTLTISSLQPEDFATYYCQQYDSYPITFGQGTRLEIKRTVAAPSVFIFPPSDEQLKSGTASVVCLLNNFYPREAKVQWKVDNALQSGNSQESVTEQDSKDSTYSLSSTLTLSKADYEKHKVYACEVTHQGLSSPVTKSFNRGEC
notes: Monovalent CD30 control
The term EC50 (read off the curve) denotes the midpoint of the concentration-response curve. On to B1, for which the “EC50 (read off the curve)” value with human CD30 [1] was approximately 0.2 µg/mL; with human CD30 [2], approximately 0.1 µg/mL; in the assay with human CD30 [4] it was approximately 0.4 µg/mL; with human CD30 [5], approximately 0.3 µg/mL; with human CD30 [6], approximately 0.2 µg/mL. Besides, the binding result in assay [3] was “binds”.

B2: IgG1-CD30-MDX060-FERR (antibody)
heavy: QVQLQQWGAGLLKPSETLSLTCAVYGGSFSAYYWSWIRQPPGKGLEWIGDINHGGGTNYNPSLKSRVTISVDTSKNQFSLKLNSVTAADTAVYYCASLTAYWGQGSLVTVSSASTKGPSVFPLAPSSKSTSGGTAALGCLVKDYFPEPVTVSWNSGALTSGVHTFPAVLQSSGLYSLSSVVTVPSSSLGTQTYICNVNHKPSNTKVDKRVEPKSCDKTHTCPPCPAPEFERGPSVFLFPPKPKDTLMISRTPEVTCVVVDVSHEDPEVKFNWYVDGVEVHNAKTKPREEQYNSTYRVVSVLTVLHQDWLNGKEYKCKVSNKALPAPIEKTISKAKGQPREPQVYTLPPSREEMTKNQVSLTCLVKGFYPSDIAVEWESNGQPENNYKTTPPVLDSDGSFFLYSRLTVDKSRWQQGNVFSCSVMHEALHNHYTQKSLSLSPG
light: DIQMTQSPTSLSASVGDRVTITCRASQGISSWLTWYQQKPEKAPKSLIYAASSLQSGVPSRFSGSGSGTDFTLTISSLQPEDFATYYCQQYDSYPITFGQGTRLEIKRTVAAPSVFIFPPSDEQLKSGTASVVCLLNNFYPREAKVQWKVDNALQSGNSQESVTEQDSKDSTYSLSSTLTLSKADYEKHKVYACEVTHQGLSSPVTKSFNRGEC
notes: Monospecific, bivalent parental antibody; also called IgG1-huCD30-MDX060-FERR
For the molecule B2, the “EC50 (read off the curve)” value is approximately 0.06 µg/mL with human CD30 [1]; approximately 0.04 µg/mL in the assay with human CD30 [7]; approximately 0.06 µg/mL with human CD30 [2]; approximately 0.04 µg/mL with human CD30 [8]; approximately 0.07 µg/mL with human CD30 [9]; approximately 0.1 µg/mL with human CD30 [10]. The “EC50 (read off the curve)” value with human CD30 [11] was approximately 0.07 µg/mL; in the assay with human CD30 [12] it was approximately 0.1 µg/mL; with human CD30 [6] it was approximately 0.1 µg/mL; with human CD30 [13] it was approximately 0.03 µg/mL; with human CD30 [14], approximately 0.3 µg/mL; with human CD30 [15] it was approximately 0.04 µg/mL.
